Where a chain is given by its changes, count along the chain named. In names and notes the source's numbering stands.
B1: bsCD63N74Hxb12 (bispecific antibody, part only; not given: b12 control arm, constant regions, V domains shown, not shown: another chain or arm of the molecule; a dimerising Fc or GST)
VH: EVQLQQSGPELVKPGASVKMSCKASGYTFTSYVMHWVRQTPGQGLEWIGYITPYHDGTKYNEKFKGKATLTSDKSSSTAYMELSSLTSEDSAVYYCVGGDNYYYAMDYWGQGTSVTVSA
VL: NIMVTQSPSSLAVSAGEKVTMSCKSSQSVLYSSNQKNYLAWYQQKPGQSPKLLIYWASTRVSGVPDRFTGSGSGTDFTLTISRVQAEDLAVYYCHQYFSSFTFGSGTKLEIK
B2: bsCD63xb12-Duo3 (bispecific antibody, part only; not given: b12 control arm VH and VL, IgG1, V domains shown, part only)
VH: EVQLQQSGPELVKPGASVKMSCKASGYTFTSYVMHWVRQTPGQGLEWIGYITPYNDGTKYNEKFKGKATLTSDKSSSTAYMELSSLTSEDSAVYYCVGGDNYYYAMDYWGQGTSVTVSAA
VL: NIMVTQSPSSLAVSAGEKVTMSCKSSQSVLYSSNQKNYLAWYQQKPGQSPKLLIYWASTRVSGVPDRFTGSGSGTDFTLTISRVQAEDLAVYYCHQYFSSFTFGSGTKLEIKRT
B3: bsHER2xCD63-Duo3 with CD63 variant LS52 (bispecific antibody, part only; not given: HER2 arm (IgG1-153) VH and VL, V domains shown, part only)
VH: B2 VH
VL: B2 VL with S32H
B4: bsHER2xCD63-Duo3 (bispecific antibody, part only; not given: HER2 arm, IgG1, V domains shown, part only)
VH: B2 VH
VL: B2 VL
B5: bsCD63xb12-Duo3 with CD63 variant Y127 (bispecific antibody, part only; not given: b12 control arm VH and VL, V domains shown, part only)
VH: B2 VH with Y108H
VL: B2 VL
B6: bsHER2xCD63-Duo3 with CD63 variant Y46 (bispecific antibody, part only; not given: HER2 arm (IgG1-153) VH and VL, V domains shown, part only)
VH: B2 VH with Y27H
VL: B2 VL
B7: bsHER2xCD63-Duo3 with CD63 variant P72H (bispecific antibody, part only; not given: HER2 arm (IgG1-153) VH and VL, V domains shown, part only)
VH: B2 VH with P53H
VL: B2 VL
B8: bsCD63N74Hxb12-Duo3 (bispecific antibody, part only; not given: b12 control arm, V domains shown, part only)
VH: B2 VH with N55H
VL: B2 VL
B9: bsCD63xb12-Duo3 with CD63 variant LN54H (bispecific antibody, part only; not given: b12 control arm VH and VL, V domains shown, part only)
VH: B2 VH
VL: B2 VL with N34H
B10: bsCD63xb12-Duo3 with CD63 variant LQ47 (bispecific antibody, part only; not given: b12 control arm, V domains shown, part only)
VH: B2 VH
VL: B2 VL with Q27H
B11: bsCD63xb12-Duo3 with CD63 variant LS52 (bispecific antibody, part only; not given: b12 control arm VH and VL, V domains shown, part only)
VH: B2 VH
VL: B2 VL with S32H
B12: bsCD63xb12-Duo3 with CD63 variant G76H (bispecific antibody, part only; not given: b12 control arm VH and VL, V domains shown, part only)
VH: B2 VH with G57H
VL: B2 VL
B13: bsHER2xCD63-Duo3 with CD63 variant Y79H (bispecific antibody, part only; not given: HER2 arm (IgG1-153) VH and VL, V domains shown, part only)
VH: B2 VH with Y60H
VL: B2 VL
B14: bsHER2xCD63-Duo3 with CD63 variant G76H (bispecific antibody, part only; not given: HER2 arm (IgG1-153) VH and VL, V domains shown, part only)
VH: B2 VH with G57H
VL: B2 VL
B15: bsHER2xCD63-Duo3 with CD63 variant T71H (bispecific antibody, part only; not given: HER2 arm (IgG1-153) VH and VL, V domains shown, part only)
VH: B2 VH with T52H
VL: B2 VL
B16: bsCD63xb12-Duo3 with CD63 variant T71H (bispecific antibody, part only; not given: b12 control arm, V domains shown, part only)
VH: B2 VH with T52H
VL: B2 VL
B17: bsHER2xCD63-Duo3 with CD63 variant LN54H (bispecific antibody, part only; not given: HER2 arm (IgG1-153) VH and VL, V domains shown, part only)
VH: B2 VH
VL: B2 VL with N34H
B18: bsCD63xb12-Duo3 with CD63 variant LY51H (bispecific antibody, part only; not given: b12 control arm VH and VL, V domains shown, part only)
VH: B2 VH
VL: B2 VL with Y31H
B19: bsHER2xCD63-Duo3 with CD63 variant LQ47 (bispecific antibody, part only; not given: HER2 arm, V domains shown, part only)
VH: B2 VH
VL: B2 VL with Q27H
B20: bsCD63xb12-Duo3 with CD63 variant P72H (bispecific antibody, part only; not given: b12 control arm, V domains shown, part only)
VH: B2 VH with P53H
VL: B2 VL
B21: bsHER2xCD63N74H-Duo3 (bispecific antibody, part only; not given: HER2 arm, V domains shown, part only)
VH: B2 VH with N55H
VL: B2 VL
B22: bsHER2xCD63-Duo3 with CD63 variant LV49H (bispecific antibody, part only; not given: HER2 arm (IgG1-153) VH and VL, V domains shown, part only)
VH: B2 VH
VL: B2 VL with V29H
B23: bsHER2xCD63-Duo3 with CD63 variant Y127 (bispecific antibody, part only; not given: HER2 arm (IgG1-153) VH and VL, V domains shown, part only)
VH: B2 VH with Y108H
VL: B2 VL
B24: bsCD63xb12-Duo3 with CD63 variant Y46 (bispecific antibody, part only; not given: b12 control arm VH and VL, V domains shown, part only)
VH: B2 VH with Y27H
VL: B2 VL
B25: bsHER2xCD63-Duo3 with CD63 variant Y121H (bispecific antibody, part only; not given: HER2 arm, V domains shown, part only)
VH: B2 VH with Y102H
VL: B2 VL
B26: bsCD63xb12-Duo3 with CD63 variant Y121H (bispecific antibody, part only; not given: b12 control arm VH and VL, V domains shown, part only)
VH: B2 VH with Y102H
VL: B2 VL
B27: bsCD63xb12-Duo3 with CD63 variant Y79H (bispecific antibody, part only; not given: b12 control arm, V domains shown, part only)
VH: B2 VH with Y60H
VL: B2 VL
B28: bsCD63xb12-Duo3 with CD63 variant LV49H (bispecific antibody, part only; not given: b12 control arm, V domains shown, part only)
VH: B2 VH
VL: B2 VL with V29H
B29: bsHER2xCD63-Duo3 with CD63 variant LY51H (bispecific antibody, part only; not given: HER2 arm (IgG1-153) VH and VL, V domains shown, part only)
VH: B2 VH
VL: B2 VL with Y31H

biological target: CD63 on cells (human) (UniProt P08962); assay: cell-based or functional assay
Sequence (P08962 2-238): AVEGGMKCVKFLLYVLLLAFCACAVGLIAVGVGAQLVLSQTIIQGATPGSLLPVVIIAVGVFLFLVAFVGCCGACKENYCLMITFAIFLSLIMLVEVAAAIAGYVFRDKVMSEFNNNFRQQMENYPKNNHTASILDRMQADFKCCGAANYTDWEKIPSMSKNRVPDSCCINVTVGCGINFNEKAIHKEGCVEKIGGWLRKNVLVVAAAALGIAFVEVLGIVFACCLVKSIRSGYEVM

Binder | lysosomal co-localization with LAMP1 in SK-OV-3 cells (confocal microscopy, 16 hours) | IC50 of cytotoxicity, Colo205 cells (CellTiter-GLO, 4 days) | IC50 of cytotoxicity, HCC1954 cells (CellTiter-GLO, 4 days) | IC50 of cytotoxicity, SK-OV-3 cells (CellTiter-GLO, 4 days)
B1 | 10 fold lower | – | – | –
B2 | – | 2.61 µg/mL | 0.424 µg/mL | 0.815 µg/mL
B3 | – | 0.567 µg/mL | 0.018 µg/mL | 0.047 µg/mL
B4 | – | 0.416 µg/mL | 0.009 µg/mL | 0.017 µg/mL
B5 | – | 1.89 µg/mL | 0.664 µg/mL | 1.08 µg/mL
B6 | – | 0.754 µg/mL | 0.016 µg/mL | 0.045 µg/mL
B7 | – | 1.4 µg/mL | 0.014 µg/mL | 0.028 µg/mL
B8 | – | 3.93 µg/mL | 1.35 µg/mL | 1.99 µg/mL
B9 | 10 fold lower | 10 µg/mL | 1.55 µg/mL | 3.35 µg/mL
B10 | – | 2.43 µg/mL | 0.753 µg/mL | 1.11 µg/mL
B11 | – | 2.25 µg/mL | 0.662 µg/mL | 1.13 µg/mL
B12 | – | 1.42 µg/mL | 10 µg/mL | 3.06 µg/mL
B13 | – | 0.432 µg/mL | 0.008 µg/mL | 0.021 µg/mL
B14 | – | 10 µg/mL | 0.104 µg/mL | 0.351 µg/mL
B15 | – | 2.23 µg/mL | 0.03 µg/mL | 0.115 µg/mL
B16 | – | 10 µg/mL | 4.89 µg/mL | 3.8 µg/mL
B17 | – | 1.69 µg/mL | 0.013 µg/mL | 0.021 µg/mL
B18 | – | 10 µg/mL | 5.27 µg/mL | 4.52 µg/mL
B19 | – | 0.587 µg/mL | 0.017 µg/mL | 0.048 µg/mL
B20 | 10 fold lower | 10 µg/mL | 0.92 µg/mL | 1.72 µg/mL
B21 | – | 1.35 µg/mL | 0.017 µg/mL | 0.037 µg/mL
B22 | – | 10 µg/mL | 0.065 µg/mL | 0.314 µg/mL
B23 | – | 0.472 µg/mL | 0.017 µg/mL | 0.061 µg/mL
B24 | – | 5.64 µg/mL | 0.9 µg/mL | 1.37 µg/mL
B25 | – | 10 µg/mL | 0.073 µg/mL | 0.259 µg/mL
B26 | 10 fold lower | 10 µg/mL | 10 µg/mL | 5.46 µg/mL
B27 | – | 3.41 µg/mL | 0.42 µg/mL | 0.93 µg/mL
B28 | – | 10 µg/mL | 1.65 µg/mL | 1.4 µg/mL
B29 | – | 10 µg/mL | 0.069 µg/mL | 0.207 µg/mL

From patent US20190352423A1 (Genmab, published 2019)
